Experimental data reported in patent US20210292423A1 (published 2021).
Positions count from the first letter of the chain named.

B1: 18F5-H10 Fab (Fab, V domains shown)
VH: EVQVVETGGSLVQPGKSLKLTCATSGFTFTNAWMHWVRRSPEKQLEWVAQIKDKSNNYATYYAESVKGRFTISRDDSKSSIYLQMNSLKEEDTAIYYCRYVHYRFAYALDAWGRGTSVSVSS
VL: DVLMTQTPVSLSVSLGGQVSISCRSSQSLVHTNGNTYLSWYLQKPGQSPQLLIYKVSNRLSGISDRFSGSGSGTDFTLKISRVEPDDLGVYYCGQGTHYPFTFGAGTKLELKR
notes: also called BDX-18F5-H10
B2: 11F9-F8 Fab (Fab, V domains shown)
VH: EVQLVETGGTLVQPGKSLKLTCATSGFTFSNAWMHWVRQSPEKQLEWVAQIKAKSNNYATYYAESVKGRFTISRDDSKTSVYLQLNSLREEDTAIYYCRGTQYGYNPFDYWGQGVMVTVSS
VL: DVVLTQTPVSLSVSLGGQVSISCRSSQSLVHNNGNTYLSWSLQKPGQSPQVLIYKVSNRFSGISNRFSGSGSGTDFTLKISRVEPDDLGVYYCGQGAHYPFTFGSGTKLEIK
notes: also called 11F9-F8-huFab
B3: 12G3-E8 Fab (Fab, V domains shown)
VH: EVRVVETGGSLVQPGKSLKLTCATSGFTFSLAWMHWVRQSPEKKLEWVAQIKDKANNYATYYAESVKGRFTISRDDSKRSVYLQMNRLKEEDTAIYYCRGVYYGFSMTPFDYWGQGVMVTVSS
VL: B2 VL with V3A, L4M, S41Y, N65D, T74A, A97T, H98Q, S105A, I111L
B4: 20E5-F10 Fab (Fab, V domains shown)
VH: EVQLVETGENLVQPGKSLRLTCATSGFSFSNAWMHWIRQSPEKQLEWVAQIKDKSNNYATYYAESVNGRFTISRDDSKSSIYLHMDNLKEEDSAIYYCRYVHYGVRFFYTMDVWGQGTSVTVSS
VL: B2 VL with L4M, G17D, S25P, S41Y, Q50H, V51P, N65D, A97T, H98Q
notes: also called 20E5-F10-huFab
B5: 10E6-G6 Fab (Fab, V domains shown)
VH: B2 VH with T10G, P14S, F29V, S30T, A59E, T79S, L85M, R89K
VL: B2 VL with L4M, T7S, N35Y, S41Y, L52F, N65D, V83I, A97T

biological target: T1, human CD3ε/δ-Fc fusion protein (soluble recombinant CD3ε/δ complex) (human, UniProt P04234 22-105); test: SPR Biacore, CD3εδ-Fc captured, Fab analyte
T1 construct: also called huCD3ε/δ; huCD3; not shown: hinge, CH2, CH3 of human IgG with tag
Procedure: (§1) Binding affinities of anti-CD3 binding Fabs or CODV-Fabs were measured by surface plasmon resonance (SPR) using a Biacore3000 instrument (GE Healthcare). Assay buffer was HBS-EP (BR-1001-88, GE Healthcare). Capture of CD3ε/δ-Fc fusion proteins was achieved using the human antibody capture kit (GE Healthcare). […] The CD3εδ-Fc fusions proteins were captured at 10 μl/min to approx. 70 RU to yield Rmax values of 30 RU. Binding kinetics with the anti-CD3 Fabs or CODV-Fabs was measured at 30 μl/min for 240 sec. and 600 sec. for association and dissociation phase, respectively. Twofold dilutions of Fabs from 3 to 400 nM in assay buffer were used. All Fab concentrations were run in duplicate together with duplicate buffer blanks for double referencing. Regeneration of the capture surface was performed with a 1 min injection of 3M MgCl2 solution at 30 μl/min. For data analysis the BIAevaluation software v.4.1 (GE Healthcare) was used. Data were fit globally using a 1:1 Langmuir model with mass transfer.

T1 sequence (chain, as listed by the source mutant, chain 1 of 2): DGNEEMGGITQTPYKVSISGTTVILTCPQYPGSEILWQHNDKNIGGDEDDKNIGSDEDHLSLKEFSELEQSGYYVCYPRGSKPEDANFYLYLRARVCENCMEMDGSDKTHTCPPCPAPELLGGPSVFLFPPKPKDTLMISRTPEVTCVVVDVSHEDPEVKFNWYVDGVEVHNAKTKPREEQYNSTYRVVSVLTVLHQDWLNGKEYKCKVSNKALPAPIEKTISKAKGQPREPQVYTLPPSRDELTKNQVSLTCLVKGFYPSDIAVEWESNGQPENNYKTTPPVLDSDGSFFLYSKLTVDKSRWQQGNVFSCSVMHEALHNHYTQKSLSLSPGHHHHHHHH
T1 sequence (P04234 22-105, stated change not applied, chain 2 of 2): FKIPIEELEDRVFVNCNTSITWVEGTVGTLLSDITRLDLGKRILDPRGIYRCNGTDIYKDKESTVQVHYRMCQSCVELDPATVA

Row | Kd [nM] | koff [s⁻¹] | kon [M⁻¹ s⁻¹] | Binder
1 | 0.89 | 0.00018 | 200000 | B1
2 | 5.2 | 0.0004 | 77000 | B2
3 | 9.3 | 0.0011 | 110000 | B3
4 | 4.3 | 0.00043 | 99000 | B4
5 | 14 | 0.002 | 140000 | B5

biological target: T2, human CD3δ expressed alone on HEK293F cells (human, UniProt P04234 22-171); test: flow cytometry, HEK293F transfected with huCD3δ
T2 construct: entry includes the signal peptide; also called huCD3δ
Procedure: (§2) To analyze binding of antibodies to human CD3ε and human CD3δ expressed on the surface of cells, HEK293F cells were transfected with both constructs either alone or in co-transfection and signals were measured by flow cytometry. For transfection procedure FuGENE HD Transfection Reagent (Promega, #E2311) was used according to manufacturer's protocol.
Cells were incubated on a shaker at 37° C. and 5% CO2. At day one to three after transfection cells were harvested and binding of antibodies was analyzed by flow cytometry.
(§3) Antibodies for staining were seeded at 1 μg in 50 μl per well Stain Buffer with FBS (BD Pharmingen) in 96-well U-bottom suspension culture plates (Greiner bio-one). Harvested transfected cells were resuspended in Stain Buffer with FBS and were added at 50 μl per well to the antibodies. Cells were incubated at 4° C. in the dark for 30 min and were washed twice. 0.5 μg secondary antibody Goat F(ab′)2 Anti-Human IgG-FITC (Beckman Coulter, #732598) or Goat F(ab′)2 Anti-Human kappa-PE (Southern Biotech, #206209), respectively, in combination with 0.5 μg 7-AAD per well was added in 100 μl Stain Buffer with FBS. Cells were incubated at 4° C. in the dark for 15 min and were washed twice. For measurement, cells were resuspended in 200 μl Stain Buffer with FBS. Cells were measured using the MACSQuant (Miltenyi Biotec) or LSRII (BD) flow cytometer, respectively. Further data analyses were performed using the FlowJo software (Tree Star, Inc.).

T2 sequence (P04234 22-171 limits assumed, stated change not applied): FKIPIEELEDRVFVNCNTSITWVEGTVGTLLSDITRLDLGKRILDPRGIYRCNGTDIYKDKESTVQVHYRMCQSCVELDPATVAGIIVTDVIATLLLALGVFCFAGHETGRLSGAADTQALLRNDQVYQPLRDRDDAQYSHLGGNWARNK

Row | Binder | binding result
6 | B1 | no binding (tested: <20% of binding of huCD3e + huCD3d)
7 | B2 | no binding (tested: <20% of binding of huCD3e + huCD3d)
8 | B3 | no binding (tested: <20% of binding of huCD3e + huCD3d)
9 | B4 | no binding (tested: <20% of binding of huCD3e + huCD3d)
10 | B5 | no binding (tested: <20% of binding of huCD3e + huCD3d)

biological target: recombinant huCD3ε/γ protein with Fc-tag (PB01225) (human, UniProt P07766 23-126; P09693 23-116); test: SPR, CD3-Fc captured, Fab 100 nM
Procedure: (§4) Binding was tested by SPR using a BIAcore3000 instrument run with HBS-EP buffer. Recombinant huCD3 proteins (ε/δ (PB01226), ε/γ (PB01225)) were captured at 10 μl/min via Fc-tag by anti-human Fc capture antibody MAB1302 (Millipore) immobilized on a CM5 sensor chip. Anti-CD3 Fabs were used as analytes at 100 nM with association and dissociation times of 240 sec and 300 sec, respectively at 30 μl/min. After each cycle the surfaces were regenerated by a 2 min pulse of 10 mM glycine buffer pH2.5.

Row | RU of Fab binding at 100 nM [RU] | Binder
11 | 7 | B1
12 | 7 | B2
13 | 7 | B3
14 | 8 | B4
15 | 8 | B5

biological target: T1, human CD3ε/δ-Fc fusion protein (soluble …); test: SPR, CD3-Fc captured, Fab 100 nM
Procedure: as §4

Row | RU of Fab binding at 100 nM [RU] | Binder
16 | 13 | B1
17 | 10 | B2
18 | 10 | B3
19 | 11 | B4
20 | 11 | B5

biological target: T1, human CD3ε/δ-Fc fusion protein (soluble …); test: SPR Biacore, Fab
Procedure: as §1

Row | Kd [nM] | koff [s⁻¹] | kon [M⁻¹ s⁻¹] | Binder
21 | 1 | 0.00018 | 200000 | B1

biological target: T3, human CD3 (TCR complex) on primary human T cells or Jurkat cells (human, UniProt P07766 23-207); test: flow cytometry, primary human T cells
T3 construct: on the cells it stands in the whole TCR/CD3 complex; also called Jurkat E6-1 (expressing human TCR)
Procedure: The binding capacity of the CD3-Fabs was determined by flow cytometry. Primary human T cells were used as target cells. Therefore, peripheral blood mononuclear cells (PBMCs) were isolated from 200 ml peripheral blood of healthy donors treated with EDTA by Ficoll density centrifugation. 15 ml Histopaque (Sigma-Aldrich) was preloaded on a 50 ml Leucosep-Tube (Greiner bio-one). Blood was diluted with autoMACS Rinsing Buffer+1% BSA (Miltenyi Biotec) and loaded on the membrane of a total of ten prepared tubes. Tubes were centrifuged without brake for 10 min at 1000 xg. PBMCs were collected and washed with autoMACS Rinsing Buffer+1% BSA three times. Finally, PBMCs were resuspended in autoMACS Running Buffer (Miltenyi Biotec) for isolation of T lymphocytes by autoMACSpro technology using the Pan T Cell isolation Kit (Miltenyi Biotec) according to manufacturer's instructions. Purity of separated T cells was analyzed by MACSQuant flow cytometry using the human 7-Color Immunophenotyping Kit (Miltenyi Biotec). Isolated T cells were resuspended in Stain Buffer with FBS (BD Pharmingen) and 1E5 cells in 100 μl per well were seeded in 96-well U-bottom suspension culture plates (Greiner bio-one). Fab antibodies were diluted 1:3 in serial in PBS (Invitrogen) and 5 μl each were added to the cells at a final maximum concentration of 30000 ng/ml. The assay was incubated for 45 min at 4° C. Cells were washed twice with Stain Buffer with FBS and 1 μg secondary antibody Goat F(ab′)2 Anti-Human kappa-FITC (Beckman Coulter, #732621) per well was added in 100 μl Stain Buffer with FBS per well. The assay was incubated for 20 min at 4° C. and washed twice afterwards. Cells were resuspended in 150 μl Stain Buffer with FBS per well and were measured using the MACSQuant (Miltenyi Biotec) or LSRII (BD) flow cytometer. Further data analyses were performed using the FlowJo software (Tree Star, Inc.). Read out was percentage of cells positive for antibody binding. Cells treated only with the secondary but no primary antibody were used to set the gates. EC50 Curves were calculated by XLfit (Algorithm 205), EC50 values were calculated as inflection point of the slope (data are shown in table 6).

Row | EC50 [nM] | Binder
22 | 4.1 | B1
23 | 11.6 | B2
24 | 4.4 | B3
25 | 8.2 | B4
26 | 4.7 | B5

biological target: T4, human CD3ε expressed alone on HEK293F cells (human, UniProt P07766 23-207); test: flow cytometry, transfected HEK293F
T4 construct: also called huCD3ε
Procedure: as §2, §3

Row | % antibody positive transfected cells [%] | Binder
27 | 70.6 | B1
28 | 97 | B2
29 | 96.3 | B3
30 | 96.7 | B4
31 | 96.3 | B5

biological target: T5, human CD3ε and CD3δ co-expressed on HEK293F cells (human, UniProt P07766 23-207; P04234 22-171); test: flow cytometry, transfected HEK293F
T5 construct: also called huCD3ε/δ (transfected cells); huCD3e + huCD3d
Procedure: as §2, §3

Row | % antibody positive transfected cells [%] | Binder
32 | 70.4 | B1
33 | 96 | B2
34 | 96.7 | B3
35 | 95.3 | B4
36 | 93.3 | B5
